Measurements as given in the supplement of paper PMC10567573.
± gives the standard deviation.

Assay: protein stability index of a GFP-peptide fusion (GPS, HEK-293T) (PSI 1-6); higher = more stable
[1] = treatment: DMSO, c terminus: a fixed tail appended
[2] = treatment: MLN4924 1 uM, 8 h, c terminus: a fixed tail appended
[3] = treatment: DMSO, c terminus: native
[4] = treatment: MLN4924 1 uM, 8 h, c terminus: native
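Also: 24-mer peptide tiles fused after GFP, lentivirally expressed, FACS-sorted into six equal bins by GFP/DsRed ratio, decoded by Illumina sequencing, PSI is the read-weighted mean bin number.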

| Sequence | protein stability index [1] | protein stability index [2] | protein stability index [3] | protein stability index [4] |
| --- | --- | --- | --- | --- |
| ESRAPSPLLHKDSASLEVVKKDHV [CBY2] | 5.18 ± 0.3 | 5.27 ± 0.24 | – | – |
| LFVIVPVLGPLVALIICYNWLHRR [MOG] | 3.38 ± 0.68 | 3.11 ± 0.58 | – | – |
| AKFDFLTRKHHCRRCGKCFCDRCC [ZFYVE21] | 3.08 ± 0.29 | 3.45 ± 0.44 | – | – |
| GAQFEGEKGRALQIRDWRGGRLEN [ZSWIM9] | 4.24 ± 0.23 | 3.87 ± 0.57 | – | – |
| SKCQRLFRSPSMPCSVIRPILKRL [CDC25B] | 2.85 ± 0.2 | 2.65 ± 0.24 | – | – |
| SELTRLIQRIRSEIENVKKQASNL [KRT71] | 2.09 ± 0.068 | 2.22 ± 0.21 | – | – |
| RSNADYQYQLLRCNVDLLKIIQLG [CNOT7] | 2.61 ± 0.46 | 2.51 ± 0.34 | – | – |
| SARIVQVVTAEAVAVLKGEQEKEA [MAP2] | 4.82 ± 0.11 | 4.81 ± 0.21 | – | – |
| PREDGASVNDQCGFGVLRLDADAA [TSPAN10] | 4.38 ± 0.31 | 4.15 ± 0.17 | – | – |
| EQGFQEGVPNASVIMQVPERIVVA [MFF] | 3.76 ± 0.35 | 3.83 ± 0.042 | – | – |
| PEFDYLKSLEIEEKINKIKWLPQQ [PPP2R2C] | 3.52 ± 0.23 | 3.58 ± 0.2 | – | – |
| SELGDYDPDECGSDYISEFRFAPN [EPB41L3] | 2.22 ± 0.34 | 3.12 ± 0.78 | – | – |
| ANFIEKVRFLEQQNAALRGELSQA [PRPH] | 3.39 ± 0.12 | 3.36 ± 0.39 | – | – |
| DEHEHPLTSELDPEKEQEIETIKI [MIA2] | 5.33 ± 0.42 | 5.36 ± 0.42 | – | – |
| VQLIWVVSQLYPESIVPIPSSNEE [INTS4] | 3.07 ± 0.45 | 2.81 ± 1.1 | – | – |
| TRPSGNNGNRRRRKLRKTVNGDGS [PHTF1] | 4.83 ± 0.2 | 5.03 ± 0.12 | – | – |
| TASSSYGKGEGPIWLDNLHCTGNE [LOXL2] | 3.91 ± 0.16 | 3.91 ± 0.25 | – | – |
| HEEEVKGLQAQIASSGLTVEVDAP [KRT18] | 5.51 ± 0.23 | 5.45 ± 0.27 | – | – |
| TRHLKRLALMIQSSGNTVLLLILC [TMEM192] | 2.55 ± 0.41 | 2.35 ± 0.29 | – | – |
| DVDEDEPGGLVGSADVVSPSGHSD [PPFIA4] | 5.66 ± 0.36 | 5.47 ± 0.12 | – | – |
| VIATATVYFKRFYARYSLKSIDPV [CCNC] | 2.8 ± 0.74 | 2.8 ± 0.64 | – | – |
| ESEPPAPNIRNMAPNSLSAPTMLH [TRAF3IP2] | 4.54 ± 0.24 | 4.37 ± 0.34 | – | – |
| YLCFLLAVLLQLYVATEAILIALV [SLC22A15] | 2.64 ± 0.38 | 2.51 ± 0.63 | – | – |

| Sequence | protein stability index [1] | protein stability index [2] | protein stability index [3] | protein stability index [4] |
| --- | --- | --- | --- | --- |
| EDSLAALSSVPSEAQISDPFAPEP [SNAP91] | 5.33 ± 0.34 | 5.34 ± 0.18 | – | – |
| QFLDIGPDVTRVGLLQYGSTVKNE [MATN2] | 3.55 ± 0.14 | 3.65 ± 0.45 | – | – |
| ELALALKGNTTLQQLDLRWNNVGL [LRRC45] | 2.19 ± 0.42 | 2.07 ± 0.35 | – | – |
| VCEEQKCEEEVFPLAMNYLDRFLS [CCND1] | 3.59 ± 0.079 | 3.8 ± 0.18 | – | – |
| SGDCDQRFRFPSPILKVQYHPRDQ [RBBP5] | 3.8 ± 0.19 | 3.74 ± 0.27 | – | – |
| GYSIKVFDFERSGLQHAPEPDAAD [SMAD6] | 4.26 ± 0.37 | 4 ± 0.17 | – | – |
| DQEHNVAALKQAIKDKEAPLHVAQ [TEKT4] | 5.11 ± 0.19 | 5.18 ± 0.15 | – | – |
| IDKVRFLEQQNQVLETKWELLQQL [KRT71] | 2.74 ± 0.1 | 2.73 ± 0.27 | – | – |
| MAMVVSTWRDPQDEVPGSQGSQAS [NR2F2] | 4.05 ± 0.27 | 4.32 ± 0.25 | – | – |
| NSKKEEPQELLQSQDFVGEKLGSG [ATE1] | 5.51 ± 0.11 | 5.42 ± 0.23 | – | – |
| GWPHEDAAQFTDFLIPMLEMVPEK [SRPK2] | 3.83 ± 0.26 | 4.01 ± 0.1 | – | – |
| HTVGVLFNNGAHMSLLPDKKTVHY [PLK2] | 2.65 ± 0.33 | 2.66 ± 0.22 | – | – |
| ESGTKGLFAGFLPRIIKAAPSCAI [SLC25A39] | 2.24 ± 0.12 | 2.47 ± 0.28 | – | – |
| ASQHSYPLNRFSSVPLDPMERPMS [CBY2] | 3.92 ± 0.33 | 3.98 ± 0.32 | – | – |
| SKYGRDWERYTAAVPYRLLPGIF [DHCR7] | – | – | 2.87 ± 0.4 | 2.57 ± 0.46 |
| AQHKFLVAVESMEPNNIVVLLQTS [TCF25] | 2.58 ± 0.54 | 2.35 ± 0.56 | – | – |
| DSTMRILSNLVQHILKKYYGNGMR [RTP4] | 2.45 ± 0.73 | 2.46 ± 0.41 | – | – |
| TPFLTNHGAHKAEKKLFECLTCGK [ZNF263] | 3.32 ± 0.34 | 3.53 ± 0.67 | – | – |
| SDAGSPSLHKHLTIRLNISDVNDN [PCDHGC5] | 3.73 ± 0.17 | 3.71 ± 0.24 | – | – |
| FSKQIVLRGKSIKRAPGEETEKEE [NEUROD6] | 4.94 ± 0.28 | 5.1 ± 0.34 | – | – |
| RMEKGEPYMSIQPAEDPDDYDDGF [SMARCE1] | 5.61 ± 0.076 | 5.54 ± 0.27 | – | – |
| HSYNVTQRRPRVLSCLHSVCEQCL [RNF208] | 2.87 ± 0.17 | 3.16 ± 0.33 | – | – |
| PHAMTIQELVDYVNARQKQGIYEE [PTPN9] | 3.23 ± 0.21 | 3.25 ± 0.41 | – | – |

| Sequence | protein stability index [1] | protein stability index [2] | protein stability index [3] | protein stability index [4] |
| --- | --- | --- | --- | --- |
| LQLYFWKDREFHELQGDFSVPDVP [VPS39] | 2.02 ± 0.46 | 2.17 ± 0.22 | – | – |
| FMRTSVKISYIGLMTQSSLETHHY [TMEM106C] | 3.07 ± 0.75 | 2.63 ± 0.38 | – | – |
| IALFTARLHHPHKSVQHVVLQALF [PTPN9] | 2.59 ± 0.54 | 3.13 ± 0.72 | – | – |
| LKAFNMFVRLFVDENLDRMVPISK [NOL4L] | 2.67 ± 0.61 | 2.41 ± 0.27 | – | – |
| SSTLVRPIRSRRALPPLRTRSKSD [FAM189A2] | 4.65 ± 0.31 | 4.6 ± 0.084 | – | – |
| KMKHHLTEHMKTHTGLKPYECGVC [ZBTB22] | 3.32 ± 0.28 | 3.5 ± 0.47 | – | – |
| SELDADHPGFKDNVYRKRRKYFAD [TPH1] | 4.13 ± 0.21 | 4.19 ± 0.2 | – | – |
| ESHEVPGTLSMGVPQIFKYGETCF [ZNF24] | 2.74 ± 0.39 | 2.89 ± 0.73 | – | – |
| ELEKNFSNFPRQYFALRKILKQLI [TRIM39] | 2.58 ± 0.92 | 2.85 ± 1.3 | – | – |
| TGTPLVAGSPIRHENAVQGSAVEV [ISL2] | 4.48 ± 0.22 | 4.45 ± 0.18 | – | – |
| LFYKPGIVLLLALAKYLKMNNFL [GULP1] | – | – | 2.87 ± 0.92 | 2.87 ± 0.91 |
| AYRTQVSSCCLHICQGIRGLWGTT [PKD2L1] | 2.34 ± 0.45 | 2.27 ± 0.28 | – | – |
| KLRHLDISRDRLSSYYKFKLTREV [ZER1] | 2.35 ± 0.13 | 2.39 ± 0.31 | – | – |
| LGAVAGLALGPILRLYKHNSQALL [MFSD9] | 2.59 ± 1.1 | 2.43 ± 0.15 | – | – |
| PGPDTGPDSELSPCIPPGFRNLVA [SPAG8] | 3.79 ± 0.27 | 3.94 ± 0.17 | – | – |
| HGSGSSLVVIQQPSLDSRQRLDYE [SPRY1] | 4.12 ± 0.28 | 3.99 ± 0.31 | – | – |
| YSYVYQDGLRLLGARARGVAMLGV [SOAT2] | 2.55 ± 0.59 | 2.25 ± 0.21 | – | – |
| DYQPTQAGRLMRPSVKYLSHPRVQ [RNF180] | 3.34 ± 0.22 | 3.4 ± 0.12 | – | – |
| VRKSRDKAKRRNQEMQQKLVELSA [CEBPD] | 3.78 ± 0.34 | 3.72 ± 0.43 | – | – |
| GNEKSIIDCKFNAESQGCNHEEDA [LOXL2] | 5.65 ± 0.23 | 5.57 ± 0.47 | – | – |
| GHNFCRGCVSRCWEVQVSPTCPVC [TRIM35] | 3.86 ± 0.22 | 3.83 ± 0.38 | – | – |
| KGFPGCKLGLHDNHWVPACHSFNR [FBXO34] | 2.26 ± 0.69 | 2.48 ± 0.15 | – | – |
| QDSTRTVGERLQDTHSWKSELQRE [TEKT4] | 4.88 ± 0.36 | 4.96 ± 0.27 | – | – |

| Sequence | protein stability index [1] | protein stability index [2] | protein stability index [3] | protein stability index [4] |
| --- | --- | --- | --- | --- |
| NSSGDIGKKEIKPFKRFLRKKSKP [SMOC2] | 4.15 ± 0.4 | 4.19 ± 0.68 | – | – |
| PLCMLLLIDHLALRARNYEYLIRL [TCF25] | 3.43 ± 1.1 | 2.92 ± 0.55 | – | – |
| QDEVPDEVENQFILRLPLEHACTV [TAF7L] | 4.395 ± 0.043 | 4.47 ± 0.13 | – | – |
| GHSHHSHHGHPSHQSHSLPNRRH [C10orf62] | – | – | 2.97 ± 0.49 | 3.71 ± 0.35 |
| ERLAHSRAAAAAAVAAATAAVEGS [KCNA4] | 4.38 ± 0.2 | 4.25 ± 0.29 | – | – |
| QHGLVLRDLKLCRFVFADRERKKL [TRIB3] | 2.38 ± 0.12 | 2.55 ± 0.18 | – | – |
| MERLRELQRASILDMRRDHEEQLQ [FBF1] | 4.28 ± 0.28 | 4.42 ± 0.29 | – | – |
| GCQPEDRRRRIIINVGGIKYSLPW [KCNG1] | 2.36 ± 0.52 | 2.5 ± 0.44 | – | – |
| EGKMYTARKGKGAFCNGQKLQVSQ [IMPA1] | 3.52 ± 0.33 | 3.93 ± 0.32 | – | – |
| IKSDEECRDLVDEAKNYLLLPQER [KLHL20] | 4.68 ± 0.14 | 4.64 ± 0.13 | – | – |
| VVHEDFREDILSCYDVYSPDKEEQ [PKD2L1] | 4.7 ± 0.33 | 4.69 ± 0.082 | – | – |
| PPTSGCLGPVPREDQAEAWGCSCC [TSPAN10] | 4.8 ± 0.3 | 4.74 ± 0.24 | – | – |
| VQLSQIQGLIGSVEEQLAQLRCEM [KRT17] | 3.04 ± 0.36 | 2.79 ± 0.32 | – | – |
| ISFNKTMTQLSSTLARCAKDILGF [PKD2L1] | 2.96 ± 0.85 | 2.62 ± 0.56 | – | – |
| QFSRGDFVVEYHGDLIEITDAKKR [KMT5A] | 4.13 ± 0.93 | 4.15 ± 0.059 | – | – |
| ILIIQGVLSDINLKKGESECQYYI [NET1] | 2.73 ± 0.54 | 2.67 ± 1 | – | – |
| PQFLHEGLSKPVYVINWFMSFGPE [FAM104B] | 2.68 ± 0.71 | 2.97 ± 1.2 | – | – |
| ALASISHVAHVTITTKTADGKCAY [MLH1] | – | 2.63 ± 0.3 | – | – |
| SKGMSIFLDILRRADKNDDGKLSF [NECAB1] | 2.27 ± 0.12 | 2.33 ± 0.17 | – | – |
| DHLTTVLYLQLAICSSLQNLEKTI [C8orf76] | 3.21 ± 0.57 | 3.41 ± 0.35 | – | – |
